In patent US6528487B1, “Peptide inhibitors of inflammation mediated by selectins” (Centocor, Inc., priority 1991, dated 2003):
“And” between values parts separate entries of the source, which are not always exact repeats. Equal entries are not always repeated. Non-standard residues stand in square brackets, D forms with d. No end group written: not given here. *: point of attachment. Fmoc = O=C(OCC1c2ccccc2-c2ccccc21)*

B1: RkIGGIWTWV-NH2 (peptide)
peptide: R[dK]IGGIWTWV-NH2
modifications: N-terminus assumed
SMILES: CC[C@H](C)[C@H](NC(=O)CNC(=O)CNC(=O)[C@@H](NC(=O)[C@@H](CCCCN)NC(=O)[C@@H](N)CCCNC(=N)N)[C@@H](C)CC)C(=O)N[C@@H](Cc1c[nH]c2ccccc12)C(=O)N[C@H](C(=O)N[C@@H](Cc1c[nH]c2ccccc12)C(=O)N[C@H](C(N)=O)C(C)C)[C@@H](C)O
B2: r…-NH2 (peptide)
peptide: [dR]KIGGIWTWV-NH2
modifications: N-terminus assumed
SMILES: CC[C@H](C)[C@H](NC(=O)CNC(=O)CNC(=O)[C@@H](NC(=O)[C@H](CCCCN)NC(=O)[C@H](N)CCCNC(=N)N)[C@@H](C)CC)C(=O)N[C@@H](Cc1c[nH]c2ccccc12)C(=O)N[C@H](C(=O)N[C@@H](Cc1c[nH]c2ccccc12)C(=O)N[C@H](C(N)=O)C(C)C)[C@@H](C)O
B3: FMOC-NNKTW-NH2 (peptide)
peptide: Fmoc-NNKTW-NH2
SMILES: C[C@@H](O)[C@H](NC(=O)[C@H](CCCCN)NC(=O)[C@H](CC(N)=O)NC(=O)[C@H](CC(N)=O)NC(=O)OCC1c2ccccc2-c2ccccc21)C(=O)N[C@@H](Cc1c[nH]c2ccccc12)C(N)=O

Assays:
GMP-140 = molecular target: T1, GMP-140 (Homo sapiens, UniProt P16109); experiment: Inhibition of neutrophil binding to GMP-140 coated wells; format: cell-based; details: human neutrophils, immobilized GMP-140, read-out: Percent inhibition of neutrophil binding to GMP-140
T1 construct: from tissue; host or cells: human platelets (outdated platelet packs from a blood bank)
T1 sequence (P16109 42-830): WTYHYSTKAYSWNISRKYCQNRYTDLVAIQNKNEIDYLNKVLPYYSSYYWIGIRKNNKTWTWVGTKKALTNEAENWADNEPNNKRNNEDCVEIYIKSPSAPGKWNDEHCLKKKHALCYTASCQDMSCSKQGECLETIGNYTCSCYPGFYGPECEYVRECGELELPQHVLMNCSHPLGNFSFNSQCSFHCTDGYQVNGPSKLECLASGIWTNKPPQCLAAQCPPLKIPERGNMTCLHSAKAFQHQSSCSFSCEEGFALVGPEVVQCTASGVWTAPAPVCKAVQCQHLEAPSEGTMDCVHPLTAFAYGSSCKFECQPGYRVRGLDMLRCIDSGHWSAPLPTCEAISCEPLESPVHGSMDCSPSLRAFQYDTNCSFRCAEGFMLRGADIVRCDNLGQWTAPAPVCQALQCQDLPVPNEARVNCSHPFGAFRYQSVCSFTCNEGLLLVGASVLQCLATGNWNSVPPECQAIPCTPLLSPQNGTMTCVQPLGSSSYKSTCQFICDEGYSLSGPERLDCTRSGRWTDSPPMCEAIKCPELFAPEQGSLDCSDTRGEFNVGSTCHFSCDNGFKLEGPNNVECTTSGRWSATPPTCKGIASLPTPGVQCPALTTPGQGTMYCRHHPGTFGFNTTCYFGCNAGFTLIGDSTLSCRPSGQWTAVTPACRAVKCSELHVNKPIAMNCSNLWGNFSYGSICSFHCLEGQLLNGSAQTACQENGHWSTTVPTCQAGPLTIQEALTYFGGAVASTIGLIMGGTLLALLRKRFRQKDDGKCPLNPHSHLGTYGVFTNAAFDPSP
Source text: Peptides can be screened for their ability to inhibit adhesion to cells, for example, neutrophil adhesion to purified GMP-140 immobilized on plastic wells, using the assay described by Geng, et al., Nature 343, 757-760 (1990).
Human neutrophils are isolated from heparinized whole blood by density gradient centrifugation on Mono-Poly resolving media, Flow laboratories. Neutrophil suspensions are greater than 98% pure and greater than 95% viable by trypan blue exclusion. For adhesion assays, neutrophils are suspended at a concentration of 2×10^6 cells/mL in Hanks' balanced salt solution containing 1.26 mM Ca^2+ and 0.81 mM Mg^2+ (HBSS, Gibco) with 5 mg/mL human serum albumin (HBSS/HSA). Adhesion assays are conducted in triplicate in 96-well microtiter plates, Corning, incubated at 4° C. overnight with 50 microliters of various protein solutions.
GMP-140 is isolated from human platelet lysates by immunoaffinity chromatography on antibody S12-Sepharose™ and ion-exchange chromatography on a Mono-Q™ column (FLPC, Pharmacia Fine Chemicals, as follows.
GMP-140 is plated at 5 micrograms/mL and the control proteins: human serum albumin (Alb), platelet glycoprotein Iib/IIIha (Iib), von Willebrand factor (vWF), fibrinogen (FIB), thrombomodulin™, gelatin (GEL) or human serum (HS), are added at 50 micrograms/mL. All wells are blocked for 2 h at 22° C. with 300 microliters HBSS containing 10 mg/mL HSA, then ashed three times with HBSS containing 0.1% Tween-20 and once with HBSS. Cells (2×10^5 per well are added to the wells and incubated at 22° C. for 20 min. The wells are then filled with HGSS/HSA, sealed with acetate tape (Dynatech), and centrifuged inverted at 150 g for 5 min. After discarding nonadherent cells and supemates, the contents of each well are solubilized with 200 microliters of 0.5% hexadecyltrimethylammonium bromide, Sigma, in 50 mM potassium phosphate, pH 6.0, and assayed for myeloperoxidase activity, Ley, et al., Blood 73, 1324-1330 (1989). The number of cells bound is derived from a standard curve of myeloperoxidase activity versus numbers of cells. Under all assay conditions, the cells release less than 5% of total myeloperoxidase and lactate dehydrogenase. Inhibition is read as a lower percent adhesion, so that a value of 5% means that 95% of the specific adhesion was inhibited.
Binding of various peptides to GMP-140 coated wells, as described above, were compared.
Binding of the peptides at various concentrations, ranging from 0.05 to 1 mM were compared.
A 5 μg/mL solution of GMP-140 in HBSS (buffer) is prepared. 50 μL is pipetted per well with the exception of three wells (A10 to A12) and the plate is stored overnight at 0° C. to 4° C. The liquids are removed by aspiration and 300 μL of 5 mg/mL human serum albumin (HSA)/HBSS is placed in the wells coated with GMP-140 plus the three non-coated wells to be used as control wells. The plate is allowed to incubate at room temperature for two hours. The HSA/HBSS solution is removed and the wells washed three times with 300 μL/well of HBSS. The third 300 μL wash of HBSS is left in each well and the plate is kept at room temperature until it is used.
Eight to ten mL of fresh human blood collected in heparinized tubes is carefully layered over 5 mL of the Mono-Poly Resolving Medium in 15 mL polypropylene centrifuge tubes. The tubes are centrifuged for 30 minutes at room temperature and 1400 to 1600 rpm. The tubes are rotated 180° and centrifuged for another 30 minutes under the same conditions. The top plasma layer and first cellular layer of leukocytes are drawn off. The second cellular layer of neutrophils is harvested (usually 2 to 3 mL per tube) and is placed in a clean 15 mL centrifuge tube. This is then underlayered with 1.5 mL of fresh resolving medium and spun at 2000 rpm for 15 minutes at room temperature. This is done to further purify the neutrophils from residual red blood cells. […]

[1] = molecular target: GMP-140 receptors on the surface of leukocytes (human); experiment: neutrophil adhesion to GMP-140 coated wells, peptide preincubated with neutrophils, myeloperoxidase read-out

Molecule	inhibition at 100 µM (GMP-140; peptide concentration 0.1 mM) [%]	inhibition at 1000 µM (GMP-140; peptide concentration 1.0 mM) [%]	percent inhibition of neutrophil binding to GMP-140 at 1.0 mM peptide [1] [%]	percent inhibition of neutrophil binding to GMP-140 at 0.1 mM peptide [1]	percent inhibition of neutrophil binding to GMP-140 at 0.5 mM peptide [1]
RKNNKTWTWVGTKKALTNEC-NH2 [Arginyl-lysyl-asparaginyl-asparaginyl-lysyl-threonyl-tryptophyl-threonyl-tryptophyl-valyl-glycyl-threonyl-lysyl-lysyl-alanyl-leucyl-threonyl-asparaginyl-glutamyl-cysteine-amide]	9	47			
RKVNNVW-NH2 [RKVNNVW-NH2]			17		
YKNNKTWTWV-NH2			104	9%	98%
B1			97	67%	88%
CRKNNKTWTWV-NH2			105	87%	
RKIGGIWTWV-NH2			105	96%	103%
B2				95%	96%
RKVNNVWVWV-NH2				94%	102%
RKNNGTWTWV-NH2			99	46%	99%
RKNNKTWTWVGTKKALTNEC-NH2			47	9%	
B3			99	85%	100%
RKVNNVWVWV				82%	98%
RKNNKTWTWV			35	14%	
KWKWNRTNVT-NH2 […-NH2 (control peptide)]			0	0%	0%
RKNNKTWTWV-NH2				13% and 14%	20% and 30%
RENNKTWTWV-NH2			96	34%	94%
Ac-RKNNKTWTWV-NH2 [Ac-…-NH2]				35%	50%
RKNNKTWTWE-NH2				17%	20%
RKNNKTWT-NH2 [RKNNKTWT-NH2]			34	26%	23%
RKNNKTW-NH2 [RKNNKTW-NH2]			99	31%	53%
